Holding throughout (assay): SPR, antibody captured, C2 as analyte;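 note: biacore SPR at 37 °C, anti-C2 mAbs captured via goat anti-human IgG on CM5 chips, double-referenced sensorgrams fit to a 1:1 kinetic or steady-state model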
For orientation: Surface plasmon resonance follows binding to a sensor surface in real time, without labels.

In experiment [1] the target is T1, human C2 D404A (human, UniProt P06681 21-752).
T1 sequence: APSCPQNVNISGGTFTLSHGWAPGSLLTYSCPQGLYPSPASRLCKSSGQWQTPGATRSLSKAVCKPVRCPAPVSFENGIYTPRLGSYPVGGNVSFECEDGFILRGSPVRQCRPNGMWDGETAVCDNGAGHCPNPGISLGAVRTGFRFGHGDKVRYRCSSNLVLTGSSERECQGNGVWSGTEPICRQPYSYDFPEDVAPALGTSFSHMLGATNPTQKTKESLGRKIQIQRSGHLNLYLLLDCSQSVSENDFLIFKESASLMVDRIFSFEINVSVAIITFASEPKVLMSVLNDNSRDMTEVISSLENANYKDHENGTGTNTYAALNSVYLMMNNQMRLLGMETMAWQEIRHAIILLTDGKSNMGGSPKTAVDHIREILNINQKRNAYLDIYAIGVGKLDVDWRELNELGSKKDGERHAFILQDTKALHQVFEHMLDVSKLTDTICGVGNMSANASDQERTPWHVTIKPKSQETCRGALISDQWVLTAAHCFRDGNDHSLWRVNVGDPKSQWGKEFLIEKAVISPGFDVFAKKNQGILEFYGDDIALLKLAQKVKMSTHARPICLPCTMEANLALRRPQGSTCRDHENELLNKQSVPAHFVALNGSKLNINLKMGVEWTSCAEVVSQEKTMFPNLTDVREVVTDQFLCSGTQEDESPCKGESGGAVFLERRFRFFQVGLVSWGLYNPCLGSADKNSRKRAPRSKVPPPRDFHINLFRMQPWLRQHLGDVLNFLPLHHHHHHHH

Experiment [2] has as its target T2, human C2 K244A (human, UniProt P06681 21-752).
T2 sequence: T1 sequence with K224A, A384D

Experiment [3] addresses T3, human C2 T483A (human, UniProt P06681 21-752).
T3 sequence: T1 sequence with A384D, T463A

Experiment [4] concerns the target T4, human C2 G530A (human, UniProt P06681 21-752).
T4 sequence: T1 sequence with A384D, G510A

Changes are numbered by the printed parent chain.

B1: RF16-226 (antibody, human IgG4 S228P, lambda)
heavy: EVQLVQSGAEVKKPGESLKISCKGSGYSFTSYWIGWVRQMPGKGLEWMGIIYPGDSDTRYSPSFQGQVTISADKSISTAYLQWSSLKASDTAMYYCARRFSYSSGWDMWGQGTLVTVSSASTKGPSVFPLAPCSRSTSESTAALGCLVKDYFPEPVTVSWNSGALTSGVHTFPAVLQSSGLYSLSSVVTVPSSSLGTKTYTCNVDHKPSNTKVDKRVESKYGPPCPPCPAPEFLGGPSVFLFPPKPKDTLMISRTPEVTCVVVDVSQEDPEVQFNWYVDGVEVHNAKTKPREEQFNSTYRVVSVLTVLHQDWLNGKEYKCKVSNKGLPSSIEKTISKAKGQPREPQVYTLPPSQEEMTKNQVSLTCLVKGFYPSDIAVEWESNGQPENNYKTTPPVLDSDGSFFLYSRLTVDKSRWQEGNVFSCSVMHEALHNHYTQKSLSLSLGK
light: SYELTQPPSVSVSPGQTARITCSGDALTSKYVAWYQQKSGLAPLLVIYEDTRRPSGIPAKFSGSSSGSVATLTISGAHGDDEADYYCYSTDASGHQRVFGGGTKLTVLSQPKAAPSVTLFPPSSEELQANKATLVCLISDFYPGAVTVAWKADGSPVKAGVETTKPSKQSNNKYAASSYLSLTPEQWKSHRSYSCQVTHEGSTVEKTVAPTECS
notes: pH-dependent anti-C2 antibody from a phage display library; also called WT
For orientation: Kd means the constant that tells how readily two partners part at equilibrium. Read a low Kd as higher affinity. On to B1, for which the Kd in experiment [1] is 12.8 nM; in experiment [2] it was 22.7 nM; in experiment [3] it was 5.5 nM; in experiment [4], 16.7 nM.

Values taken from patent US20220332804A1 (CSL INNOVATION, published 2022).
